According to US20180148514A1, “MULTIVALENT MEDITOPES, MEDITOPE-BINDING ANTIBODIES AND USES THEREOF” (City of Hope, priority 2014, published 2018):

B1: MOR-208: Meditope-enabled MOR208 (CD-19 antibody), light chain SEQ ID NO: 226, heavy chain SEQ ID NO: 227, pHrodo labeled (protein)
light: DIVMTQSPAILSLSPGERATLSCRSSKSLQNVNGNTYLYWFQQKTNGSPRLLIYRMSNLNSGVPDRFSGSGSGTEFTLTISSLEPEDEADYYCIQHLEYPITFGAGTKLEIKRTVAAPSVFIFPPSDEQLKSGTASVVCLLNNFYPREAKVQWKVDNALQSGNSQESVTEQDSKDSTYSLSSTLTLSKADYEKHKVYACEVTHQGLSSPVTKSFNRGEC
heavy: EVQLVESGGGLVKPGGSLKLSCAASGYTFTSYVMHWVRQSPGKGLEWIGYINPYNDGTKYNEKFQGRVTISSDKSISTAYMELSSLRSEDTAIYYCARGTYYYGTRVFDYWGQGTLVTVSSASTKGPSVFPLAPSSKSTSGGTAALGCLVKDYFPEPVTVSWNSGALTSGVHTFPAVLQSSGLYSLSSVVTVPSSSLGTQTYICNVNHKPSNTKVDKKVEPKSCDKTHTCPPCPAPELLGGPDVFLFPPKPKDTLMISRTPEVTCVVVDVSHEDPEVQFNWYVDGVEVHNAKTKPREEQFNSTFRVVSVLTVVHQDWLNGKEYKCKVSNKALPAPEEKTISKTKGQPREPQVYTLPPSREEMTKNQVSLTCLVKGFYPSDIAVEWESNGQPENNYKTTPPMLDSDGSFFLYSKLTVDKSRWQQGNVFSCSVMHEALHNHYTQKSLSLSPGK
modifications: pHrodo label; (1)..(219) MOR-208 Light chain; (1)..(451) MOR-208 Heavy chain
B2: BVM: bivalent meditope, peptide sequence of SEQ ID NO: 229 (protein)
chain: MGSSHHHHHHSSGLVPRGSHMGGGSWSHPQFEKGGGSGGGMSDSEVNQEAKPEVKPEVKPETHINLKVSDGSSEIFFKIKKTTPLRRLMEAFAKRQGKEMDSLRFLYDGIRIQADQTPEDLDMEDNDIIEAHREQIGGGGSAAPSSAPSPSAPCQFDLSTRRLSCGGASPAASPSAPSSPAPKAPSAAPSSAPSPSAPGGCQFDLSTRRLSCGGASPAASPSAPSSPAPK
modifications: (1)..(230) His6-SMT3-Bivalent meditope (BVM) sequence (Amino Acid)
B3: TVM: trivalent meditope, peptide sequence of SEQ ID NO: 231, expressed in E. coli (protein)
chain: MGGGSWSHPQFEKGGGSGGGMSDSEVNQEAKPEVKPEVKPETHINLKVSDGSSEIFFKIKKTTPLRRLMEAFAKRQGKEMDSLRFLYDGIRIQADQTPEDLDMEDNDIIEAHREQIGGGGSAAPSSAPSPSAPCQFDLSTRRLSCGGASPAASPSAPSSPAPKAPSAAPSSAPSPSAPGGCQFDLSTRRLSCGGASPAASPSAPSSPAPKAPSAAPSSAPSPSAPGGCQFDLSTRRLSCGGSPSAPSSPSSPKLPETG
modifications: (1)..(258) His6-SMT-Trivalent meditope (TVM) sequence (Amino Acid)

Assays:
[1] = system: Raji-B cells; test: pHrodo-labeled CD-19 antibody internalization, fluorescence microscopy, Raji-B; format: cell-based, human; conditions: 100 nM antibody with or without 100 nM meditope-Fc, 30 minutes, 37° C., n=8
Experimental: Raji-B cells, a human B lymphocyte cell line derived from human lymphoblast, CCL-86™, ATCC®, were stained for fluorescence microscopy to determine receptor-mediated endocytosis rates of the pHrodo™-labeled CD-19 antibody. Cells were stained in Nunc® Lab-Tek® II chambered 8 well coverglass polystyrene chambers (0.7 cm^2/well). Cells were stained using either 100 nM antibody and 100 nM of Alexa Fluor 488®-labeled meditope-Fc (SEQ ID NO: 236) or 100 nM antibody alone (control) for 30 minutes at 37° C. in serum-free media. Nuclei of Raji-B cells were also stained with Hoechst 33342 (2 μg/mL final concentration for 20 minutes).
Cells were imaged with a confocal microscope using appropriate wavelength settings for pHrodo™-labeled antibodies, Alexa Fluor 488-labeled meditope-Fc, and Hoechst 33342-labeled nuclei. Z sectioning permitted visualization of the internalized materials and all quantitative measurements were taken at the same defined section height. Cells were visualized and quantified at each time point for each visualization event. Total fluorescence of each stain inside and outside of imaged cells were calculated using ImageJ analysis at a single time point of 30 minutes. Total staining for MOR-208 alone was calculated as 1797.71±194.97 (n=8). Total staining for MOR-208 bound to meditope-Fc was calculated as 4430.43±632.59 (n=8).

[2] = system: meditope enabled antibody trastuzumab; test: SPR analysis of BVM and TVM gel filtration fractions; format: binding; conditions: BVM fractions 26-29, TVM fractions 21-23
[3] = system: Meditope-enabled trastuzumab version 2; test: SPR multivalent meditope valency test at varying ligand densities; format: binding; conditions: for Ka / t1/2: 37° C., 1:1 fit
Experimental: The low density channel was approximately 150 RU (FIG. 19A), the medium density channel was approximately 750 RU (FIG. 19B), and the high density channel was approximately 1500 RU (FIG. 19C).
Trivalent meditope (TVM) (SEQ ID NO: 231) concentrations were prepared as a 5-fold dilution series from 1 μM to 2.6 pM in HBS-EP+. Samples were flowed over all four channels at 30 μL/min at 37° C. Sensograms were double referenced to the blank immobilization on channel 1 and with two “0” concentration buffer blanks.
A control meditope peptide was run at the beginning and end of the experiment to assess for loss of surface activity during the experiment. Less than 5% decrease in signal was observed on the most dense ligand surface after the experiment was completed. Regeneration buffer for the experiment was a pulse of 10 mM glycine pH 3.0 with variable time from 2-10 seconds followed by a 30 sec pulse of running buffer HBS-EP+.
Data fits were performed using BiaEvaluation software with the 1:1 fit model. Data fit quality to the 1:1 binding model decreased as the surface density of ligand increased and the off rate was not well determined due to lack of curvature.

[4] = system: SKBR3 cells; test: Microscopy of SKBR3 cells with labeled TVM and trastuzumab variants; format: cell-based
Experimental: TVM was labeled with NHS-Alexa Fluor 647 following the manufacturer's protocol (Thermo Fisher Scientific, Waltham Mass.) 0.1 M sodium bicarbonate buffer pH 8.0 at room temperature for 1 hour).

[5] = most densely immobilized surface

Molecule | total staining (total fluorescence, ImageJ) [1] | binding (SPR) [2] | Ka ([3]; density 150 RU) | t1/2 ([3]; density 150 RU) | Ka ([3]; density 750 RU) | t1/2 ([3]; density 750 RU) | Ka ([3]; density 1500 RU) | t1/2 ([3]; density 1500 RU) | half-life [3, 5] | improvement of half-life over monovalent meditope [3, 5] | cell morphology and attachment ([4]; labeled TVM with meditope enabled antibody trastuzumab) | cell morphology and attachment ([4]; labeled TVM with parental trastuzumab)
B1 | 1797.71±194.97 | – | – | – | – | – | – | – | – | – | – | –
B2 | – | bound meditope enabled antibody trastuzumab antibodies | – | – | – | – | – | – | – | – | – | –
B3 | – | bound meditope enabled antibody trastuzumab antibodies | 8700 M⁻¹ s⁻¹ | 0.4 h | 10000 M⁻¹ s⁻¹ | 1.3 h | 9800 M⁻¹ s⁻¹ | 2.4 h | 2.42 h | > 30 fold | rounded morphology and frequently detached from the surface of the coverslides | not observed
